The experiment concerns the target T1, V1-TRF2, Q15554.
T1 chain: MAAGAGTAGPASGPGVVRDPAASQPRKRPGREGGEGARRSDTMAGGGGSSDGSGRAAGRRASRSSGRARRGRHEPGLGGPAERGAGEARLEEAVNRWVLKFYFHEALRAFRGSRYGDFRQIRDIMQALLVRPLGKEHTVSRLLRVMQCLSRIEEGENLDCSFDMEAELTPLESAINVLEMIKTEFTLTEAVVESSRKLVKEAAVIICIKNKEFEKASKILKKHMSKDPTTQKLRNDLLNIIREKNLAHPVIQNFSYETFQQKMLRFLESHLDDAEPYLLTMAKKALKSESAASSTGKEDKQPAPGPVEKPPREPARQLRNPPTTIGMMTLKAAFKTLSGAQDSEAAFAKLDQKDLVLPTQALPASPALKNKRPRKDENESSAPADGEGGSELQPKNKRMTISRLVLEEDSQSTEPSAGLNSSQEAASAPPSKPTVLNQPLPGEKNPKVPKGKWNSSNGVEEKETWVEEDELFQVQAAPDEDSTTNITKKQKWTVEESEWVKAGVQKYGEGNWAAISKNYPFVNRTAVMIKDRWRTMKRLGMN
The experiment in a line: protein fragment complementation assay (PCA), split Venus. Conditions: chain shown with the change; coexpression by cotransfection; three separate transfections each measured in triplicate; parent: est. 12500; read off a plot.

B1: TIN2L-V2, Q9BSI4-1 R282H (protein)
chain: MATPLVAGPAALRFAAAASWQVVRGRCVEHFPRVLEFLRSLRAVAPGLVRYRHHERLCMGLKAKVVVELILQGRPWAQVLKALNHHFPESGPIVRDPKATKQDLRKILEAQETFYQQVKQLSEAPVDLASKLQELEQEYGEPFLAAMEKLLFEYLCQLEKALPTPQAQQLQDVLSWMQPGVSITSSLAWRQYGVDMGWLLPECSVTDSVNLAEPMEQNPPQQQRLALHNPLPKAKPGTHLPQGPSSRTHPEPLAGRHFNLAPLGRRRVQSQWASTRGGHKEHPTVMLFPFRNLGSPTQVISKPESKEEHAIYTADLAMGTRAASTGKSKSPCQTLGGRALKENPVDLPATEQKENCLDCYMDPLRLSLLPPRARKPVCPPSLCSSVITIGDLVLDSDEEENGQGEGKESLENYQKTKFDTLIPTLCEYLPPSGHGAIPVSSCDCRDSSRPL
For the molecule B1, the response (fluorescence activity minus background) worked out at 5900.

B2: TIN2L-V2, Q9BSI4-1 D391K; D395K (protein)
chain: MATPLVAGPAALRFAAAASWQVVRGRCVEHFPRVLEFLRSLRAVAPGLVRYRHHERLCMGLKAKVVVELILQGRPWAQVLKALNHHFPESGPIVRDPKATKQDLRKILEAQETFYQQVKQLSEAPVDLASKLQELEQEYGEPFLAAMEKLLFEYLCQLEKALPTPQAQQLQDVLSWMQPGVSITSSLAWRQYGVDMGWLLPECSVTDSVNLAEPMEQNPPQQQRLALHNPLPKAKPGTHLPQGPSSRTHPEPLAGRHFNLAPLGRRRVQSQWASTRGGHKERPTVMLFPFRNLGSPTQVISKPESKEEHAIYTADLAMGTRAASTGKSKSPCQTLGGRALKENPVDLPATEQKENCLDCYMDPLRLSLLPPRARKPVCPPSLCSSVITIGKLVLKSDEEENGQGEGKESLENYQKTKFDTLIPTLCEYLPPSGHGAIPVSSCDCRDSSRPL
With B2, the response (fluorescence activity minus background) is 5700.

Values taken from PMC5974431.
